Results taken from US20210069244A1.

Biological target: CD19 antigen on CD19 positive RS4;11 and Raji cells (human) (UniProt P15391)
Experiment: cell-based or functional assay

Sequence of UniProt P15391 (P15391 20-556): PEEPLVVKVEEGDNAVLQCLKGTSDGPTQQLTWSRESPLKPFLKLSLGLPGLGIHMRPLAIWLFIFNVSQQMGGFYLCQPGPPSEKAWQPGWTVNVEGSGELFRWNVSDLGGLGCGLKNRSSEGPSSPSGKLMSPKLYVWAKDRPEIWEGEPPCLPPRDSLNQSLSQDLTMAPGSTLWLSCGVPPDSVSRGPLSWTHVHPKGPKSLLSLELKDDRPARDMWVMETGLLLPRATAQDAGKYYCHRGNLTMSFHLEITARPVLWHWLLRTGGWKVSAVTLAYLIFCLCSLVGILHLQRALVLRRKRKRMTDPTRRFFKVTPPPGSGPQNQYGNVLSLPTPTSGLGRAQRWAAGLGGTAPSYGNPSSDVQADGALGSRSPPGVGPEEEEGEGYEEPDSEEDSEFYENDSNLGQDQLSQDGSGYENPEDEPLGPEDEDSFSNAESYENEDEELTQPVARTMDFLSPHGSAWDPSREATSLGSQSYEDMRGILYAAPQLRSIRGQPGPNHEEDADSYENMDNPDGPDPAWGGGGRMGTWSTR

- percentage of CD19 positive RS4;11 cells remaining after 24 h co-culture with CAR-T cells: 45.1%
- percentage of CD19 positive Raji cells remaining after 24 h co-culture with CAR-T cells: 7.42%
Substance: FMC63 artificial CAR19
- cytotoxicity, RS4;11 cells, CAR19 T cell:tumor cell 5:1, donor 1, 4 h co-culture (calcein AM/PI flow cytometry): 45.8%
- cytotoxicity, RS4;11 cells, CAR19 T cell:tumor cell 5:1, donor 2, 4 h co-culture (calcein AM/PI flow cytometry): 65.6%
- cytotoxicity, RS4;11 cells, CAR19 T cell:tumor cell 10:1, donor 1, 4 h co-culture (calcein AM/PI flow cytometry): 55.8%
- cytotoxicity, RS4;11 cells, CAR19 T cell:tumor cell 10:1, donor 2, 4 h co-culture (calcein AM/PI flow cytometry): 77.1%
- cytotoxicity, Raji cells, CAR19 T cell:tumor cell 1:1, donor 1, 4 h co-culture (calcein AM/PI flow cytometry): 4.17%
- cytotoxicity, Raji cells, CAR19 T cell:tumor cell 1:1, donor 2, 4 h co-culture (calcein AM/PI flow cytometry): 46.4%
- cytotoxicity, Raji cells, CAR19 T cell:tumor cell 2:1, donor 1, 4 h co-culture (calcein AM/PI flow cytometry): 25.3%
- cytotoxicity, Raji cells, CAR19 T cell:tumor cell 2:1, donor 2, 4 h co-culture (calcein AM/PI flow cytometry): 59.9%
